We go through one substance from PMC2954335.

As a reminder, the stoichiometry N is a count of units in the complex or per binding partner.

For this experiment, the target named is ecCTLA-4 (Escherichia coli-expressed monomeric form of CTLA-4, extracellular region vl-Ig 1-124, cysteine 122 mutated to serine) (UniProt P16410). Description: SEC; monomeric ecCTLA-4 concentrated to 10 mg/ml, incubated 24 h at room temperature, then analytical size-exclusion chromatography with calibration curve; monomer to strand-swapped dimer and larger species.

Substance “ecCTLA-4 (Escherichia coli-expressed monomeric form of CTLA-4, extracellular region vl-Ig 1-124, cysteine 122 mutated to serine) (from UniProt P16410 36-159) (domain or fragment)” had a stoichiometry N above 2.
